Measured values reported in patent publication US5876691A, “Antibody against carcionembryonic antigen (CEA)” (Cancer Research Campaign Technology Limited, priority 1993, dated 1999).

Experiments:
[1] = Pyrogen test by injection into rabbits; type: in vivo; conditions: final product, three times the patient dose
Experimental: (§1) Samples at each purification stage were analysed for endotoxin levels using Limulus ameobocyte lysate (LAL) gel clot vials (Atlas bioscan. Bognor Regis, UK) according to the manufacturers' recommended instructions; a further aliquot (three times the patient dose) was tested by injection into rabbits (Safepharm Laboratories; Derby, UK) Bacterial supernatant containing MFE-23 His, semipurified MFE-23 His and the final product were tested for the presence of bacterial DNA using the Digoxigenin (DIG) DNA labelling and detection assay (Boeringer Mannheim, Lewes, UK). A probe was constructed using a mixture of equal proportions of MFE-23 plasmid DNA and total bacterial DNA. DIG labelled DNA probes were detected after hybridisation. to target samples by enzyme-linked immunoassay using an anti-DIG alkaline phosphatase conjugate. The probe was sensitive to 12 pg of DNA. […] Stability of the antibody was assessed by storing aliquots at 4° C. and -70° C. and subsequently analysing samples at certain time intervals using a Superose 12 HR 10/30 (Pharmacia) FPLC column. Retention of antigen binding following 6 months storage at 4° C. was measured by applying a known amount of purified antibody to the CEA affinity column (refer to section 2.7) and quantitating the % bound (specific activity). […]

[2] = Storage stability by FPLC (Superose 12); type: physicochemical; conditions: 4° C. and -70° C. up to 6 months
Experimental: as §1

CEA [3] = target: T1, CEA (Homo sapiens, UniProt P06731); assay: Retention of antigen binding on storage (CEA affinity column, specific activity); set-up: CEA was obtained from a patient's colorectal tumour liver metastasis by extraction using perchloric acid; from tissue; host or cells: patient's colorectal tumour liver metastasis, perchloric acid extract
T1 sequence (P06731 35-702): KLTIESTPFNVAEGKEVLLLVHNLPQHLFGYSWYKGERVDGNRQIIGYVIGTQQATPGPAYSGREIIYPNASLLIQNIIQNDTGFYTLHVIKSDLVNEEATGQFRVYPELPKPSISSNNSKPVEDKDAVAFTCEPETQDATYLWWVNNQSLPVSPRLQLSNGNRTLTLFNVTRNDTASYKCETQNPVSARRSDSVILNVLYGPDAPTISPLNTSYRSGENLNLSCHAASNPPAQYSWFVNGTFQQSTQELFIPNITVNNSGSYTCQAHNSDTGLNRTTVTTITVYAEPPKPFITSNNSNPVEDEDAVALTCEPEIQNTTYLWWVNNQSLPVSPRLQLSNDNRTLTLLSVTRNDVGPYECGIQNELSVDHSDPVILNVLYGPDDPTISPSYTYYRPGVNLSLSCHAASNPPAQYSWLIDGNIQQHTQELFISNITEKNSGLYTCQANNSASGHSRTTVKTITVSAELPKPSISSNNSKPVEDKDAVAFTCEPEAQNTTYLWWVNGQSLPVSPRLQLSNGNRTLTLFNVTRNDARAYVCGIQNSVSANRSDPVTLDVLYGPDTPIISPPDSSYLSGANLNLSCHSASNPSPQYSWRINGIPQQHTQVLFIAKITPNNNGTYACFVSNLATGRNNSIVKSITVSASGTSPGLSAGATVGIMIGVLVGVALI
Experimental: 2 liters of MFE-23 His which had been concentrated and dialysed in PBS (400 ml) was purified using a 6 ml cyanogen bromide activated Sepharose 4B (Pharmacia Biotech.) affinity column coupled to CEA (8 mg). CEA was obtained from a patient's colorectal tumour liver metastasis by extraction using perchloric acid^34. One column pass of 30 ml supernatant per run was performed.
Samples at each purification stage were analysed for endotoxin levels using Limulus ameobocyte lysate (LAL) gel clot vials (Atlas bioscan. Bognor Regis, UK) according to the manufacturers' recommended instructions; a further aliquot (three times the patient dose) was tested by injection into rabbits (Safepharm Laboratories; Derby, UK) Bacterial supernatant containing MFE-23 His, semipurified MFE-23 His and the final product were tested for the presence of bacterial DNA using the Digoxigenin (DIG) DNA labelling and detection assay (Boeringer Mannheim, Lewes, UK). A probe was constructed using a mixture of equal proportions of MFE-23 plasmid DNA and total bacterial DNA. DIG labelled DNA probes were detected after hybridisation. to target samples by enzyme-linked immunoassay using an anti-DIG alkaline phosphatase conjugate. The probe was sensitive to 12 pg of DNA. The final product was also assayed for Cu^2+ content and compared with earlier purification stages, using flame photometry (Trace Element laboratory-University of Surrey). An aliquot was also protein sequenced using amino acid analysis by the CRC protein sequencing facility (University college of London) to confirm homogeneity of the final product and cleavage of the pelB leader sequence in the periplasm. Stability of the antibody was assessed by storing aliquots at 4° C. and -70° C. and subsequently analysing samples at certain time intervals using a Superose 12 HR 10/30 (Pharmacia) FPLC column. Retention of antigen binding following 6 months storage at 4° C. was measured by applying a known amount of purified antibody to the CEA affinity column (refer to section 2.7) and quantitating the % bound (specific activity). These values were compared by applying a known amount of MFE-23 His previously purified using the same column.

[4] = Stability of radiolabelled product by gel filtration on S-100 / SDS PAGE; type: physicochemical; conditions: 125I label, SDS PAGE and gel filtration
CEA [5] = target: T1, CEA; assay: CEA binding of radiolabelled product on CEA/Sepharose column
Experimental: 75 μg of A5-SC and MFE-23 were iodinated with 0.5 mCi of 125-I using the Chloramine T/L-Tyrosine method^20. […] The stability of the radiolabelled products was tested by gel filtration on S-100.
MFE-cys was radiolabelled with ^99m Tc using a ^99m Tc-D-glucarate transfer method^22. 1 ml of ^99m Tc sodium pertechnetate (40.5 mCi) was added to 12.5 mg of monopotassium D-glucarate, 16.8 mg of sodium bicarbonate and 100 μg of stannous chloride (stannous chloride was made up directly before use at a concentration of 0.2 mg/ml). This solution was left for 1 min at room temperature. Then 0.5 ml was mixed with 200 μg MFE-cys in PBS/1 mM EDTA. The mixture was incubated at room temperature for 30 min and then applied to a PD 10 column (Pharmacia; primed with 3% human serum albumin in PBS) to separate the radiolabelled protein from the free pertechnetate. The efficiency of ^99m Tc uptake was tested by thin layer chromatography, using acetonitrile/water (30:20) as running solvent. An aliquot (100 μl) of diluted radiolabelled scFv (1:30 in PBS/Tween 20) was applied to a 1 ml CEA-sepharose column, containing 1 mg of CEA, to test CEA-binding. The column was washed with 8 volumes of PBS/0.05% Tween 20 and bound material was obtained by adding 3M ammoniumthiocyanate. Further, the stability of the labelled scFv was tested by applying the product (diluted 1:30) to Sephacryl S-100. To test the stability of the radiolabelled product in vivo serum taken from mice injected with the labelled scFv 24 h after administration was also applied to Sephacryl S-100. Stability of the ^99m Tc-labelled product was also tested by gel autoradiography as follows: radiolabelled MFE-cys was subjected to SDS-PAGE using a 15% non-reducing acrylamide gel. The protein was then Western blotted onto Immobilon P (Millipore), and visualised by autoradiography using Kodak X-Omatic cassette and Hyperfilm-MP film (Amersham).
Thin layer chromatography (TLC) was performed to measure % ^125 I incorporation. Antigen binding was also assessed by applying a dilution of the radiolabel to a CEA coupled Sepharose 4B (1 mg CEA; 1 ml column volume). The unbound fraction was washed through with 2 column volumes of PBS and the bound fraction with the same volume of 3M ammonium thiocyanate. A control scFv B1.8 which is not specific for CEA and MFE-23 containing a c-myc tag (MFE-23 myc) were tested as a comparison. The unbound and bound fractions were analysed for ^125 I activity using a gamma counter. Stability assessments were carried out by applying a sample of the radiolabel and unlabelled product to a 15% SDS PAGE minigel. The ^125 I-MFE-23 His was visualised by autoradiography and the unlabelled product by Coomassie blue staining. ^125 I-MFE-23 His was also applied to a 100 ml Sephacryl S-100 column (115×1 cm). 1.5 ml fractions were collected and counted for ^125 I activity.

B1: MFE-23 His: MFE-23 scFv with hexa-histidine tail at the C-terminus, clinical grade (protein)
scFv: QVKLQQSGAELVRSGTSVKLSCTASGFNIKDSYMHWLRQGPEQGLEWIGWIDPENGDTEYAPKFQGKATFTTDTSSNTAYLQLSSLTSEDTAVYYCNEGTPTGPYYFDYWGQGTTVTVSSGGGGSGGGGSGGGGSENVLTQSPAIMSASPGEKVTITCSASSSVSYMHWFQQKPGTSPKLWIYSTSNLASGVPARFSGSGSGTSYSLTISRMEAEDAATYYCQQRSSYPLTFGAGTKLELK
- pyrogenicity by in vivo rabbit testing [1]: non pyrogenic
- stability on storage, FPLC analysis [2]: no evidence of aggregation
- antigen binding retained after storage (CEA [3]; 6 months storage at 4° C.): 84%
- Specific activity (% bound to CEA column) (CEA [3]; CEA antigen affinity chromatography purified (d), 1 mg applied to column): 89%
- Specific activity (% bound to CEA column) (CEA [3]; IMAC purified (a), 2 mg applied to column, 6 months storage at 4° C.): 69%
- Specific activity (% bound to CEA column) (CEA [3]; IMAC purified (b), 1 mg applied to column, 6 months storage at 4° C.): 75%
- Specific activity (% bound to CEA column) (CEA [3]; IMAC purified (c), 0.5 mg applied to column, 6 months storage at 4° C.): 81%
- mean % bound specific activity (CEA [3]; IMAC purified material (a-c)): 75%
- stability of radiolabelled product [4]: monomeric, intact and unaggregated
- counts in bound fraction of CEA column, % of total counts recovered (CEA [5]; 125I radiolabelled, Example 5): 75%
- counts in unbound fraction of CEA column, % of total counts recovered (CEA [5]; 125I radiolabelled, Example 5): 25%
- further counts recovered in bound fraction on reapplying the unbound fraction (CEA [5]; % of total counts loaded, unbound fraction reapplied to CEA column): 58%
- antigen binding retained after radiolabelling (CEA [5]; after radiolabelling (125I)): > 75%
